Test [1] addresses PpCHS (GAL4 two-hybrid fusion) (Physcomitrella patens).
Test [2] has as its target His6-tagged Physcomitrella patens chalcone synthase (PpCHS) (Physcomitrella patens). Put plainly: BLI; BLItz; His6-tagged CHS immobilised on anti-His6 sensors, GST-tagged CHIL loaded (30-150 s), wash (150-270 s); 100 mM HEPES-NaOH, pH 7.5; 1:1 binding model; apparent KD.
The target in test [3] is His6-tagged snapdragon CHS (Antirrhinum majus (snapdragon)) (UniProt P06515). Put plainly: cross-linking; His6-AmCHIL 10 µM and His6-AmCHS 5 µM with 4 mM BS3 at pH 7.5 for 5 min; SDS-PAGE and immunoblot; band of 70 kDa.
The target is the same in test [4].
Test [5] addresses His6-tagged soybean chalcone synthase isozyme 7 (GmCHS-7) (Glycine max) (UniProt P30081). Put plainly: BLI; BLItz; His6-tagged CHS immobilised on anti-His6 sensors, GST-tagged CHIL loaded (30-150 s), wash (150-270 s); 100 mM HEPES-NaOH, pH 7.5; 1:1 binding model; apparent KD.
Test [6] concerns the target His6-tagged soybean chalcone synthase isozyme 1 (GmCHS-1) (Glycine max) (UniProt P24826). Described as above.
Test [7] concerns the target His6-tagged rice chalcone synthase 1 (OsCHS-1) (Oryza sativa) (UniProt Q2R3A1). Described as above.
For test [8], the target named is His6-tagged Hydrangea macrophylla chalcone synthase (HmCHS) (Hydrangea macrophylla) (UniProt O82144). The description is as above.
Test [9] addresses His6-tagged Ginkgo biloba chalcone synthase (GbCHS) (Ginkgo biloba). The test is described as above.
Test [10] has as its target His6-tagged Selaginella moellendorffii chalcone synthase (SmCHS) (Selaginella moellendorffii). The test is described as above.
Test [11] has as its target His6-tagged snapdragon chalcone synthase (His6-AmCHS) (Antirrhinum majus) (UniProt P06515). Described as above.
For test [12], the target named is His6-tagged CHS of ginkgo (Ginkgo biloba). Put plainly: BLI; BLItz; His6-tagged CHS immobilised on anti-His6 sensors, GST-tagged CHIL loaded; 100 mM HEPES-NaOH pH 7.5; 1:1 binding model; apparent KD.
In test [13] the target is His6-tagged morning glory chalcone synthase D (InCHS-D) (Ipomoea nil) (UniProt O22045). Put plainly: BLI; BLItz; His6-tagged CHS immobilised on anti-His6 sensors, GST-tagged CHIL loaded (30-150 s), wash (150-270 s); 100 mM HEPES-NaOH, pH 7.5; 1:1 binding model; apparent KD.

The text below walks through data of article PMC7018950.

His6-tagged soybean chalcone synthase isozyme 1 (GmCHS-1) (Glycine max), sequence (P24826 whole entry): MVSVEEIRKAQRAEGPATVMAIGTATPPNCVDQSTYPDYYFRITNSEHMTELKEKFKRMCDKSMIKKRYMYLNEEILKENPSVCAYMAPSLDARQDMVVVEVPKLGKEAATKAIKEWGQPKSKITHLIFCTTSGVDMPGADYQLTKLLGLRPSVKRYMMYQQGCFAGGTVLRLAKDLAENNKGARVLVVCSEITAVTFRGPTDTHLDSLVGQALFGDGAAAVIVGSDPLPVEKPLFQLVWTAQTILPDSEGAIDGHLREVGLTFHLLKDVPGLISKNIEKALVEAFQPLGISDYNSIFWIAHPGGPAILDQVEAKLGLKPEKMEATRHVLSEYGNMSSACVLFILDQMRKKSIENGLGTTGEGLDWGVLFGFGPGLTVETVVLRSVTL
His6-tagged Hydrangea macrophylla chalcone synthase (HmCHS) (Hydrangea macrophylla), sequence (O82144 whole entry): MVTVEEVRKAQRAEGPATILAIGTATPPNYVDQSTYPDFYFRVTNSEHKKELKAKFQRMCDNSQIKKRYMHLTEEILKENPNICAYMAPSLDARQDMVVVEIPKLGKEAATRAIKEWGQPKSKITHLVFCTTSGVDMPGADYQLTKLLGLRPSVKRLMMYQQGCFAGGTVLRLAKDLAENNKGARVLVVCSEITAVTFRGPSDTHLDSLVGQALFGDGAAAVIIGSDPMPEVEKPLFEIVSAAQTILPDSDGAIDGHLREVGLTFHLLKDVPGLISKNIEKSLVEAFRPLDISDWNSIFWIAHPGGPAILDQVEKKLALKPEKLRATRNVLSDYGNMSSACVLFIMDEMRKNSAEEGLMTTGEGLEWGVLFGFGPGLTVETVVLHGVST
His6-tagged rice chalcone synthase 1 (OsCHS-1) (Oryza sativa), sequence (Q2R3A1 whole entry): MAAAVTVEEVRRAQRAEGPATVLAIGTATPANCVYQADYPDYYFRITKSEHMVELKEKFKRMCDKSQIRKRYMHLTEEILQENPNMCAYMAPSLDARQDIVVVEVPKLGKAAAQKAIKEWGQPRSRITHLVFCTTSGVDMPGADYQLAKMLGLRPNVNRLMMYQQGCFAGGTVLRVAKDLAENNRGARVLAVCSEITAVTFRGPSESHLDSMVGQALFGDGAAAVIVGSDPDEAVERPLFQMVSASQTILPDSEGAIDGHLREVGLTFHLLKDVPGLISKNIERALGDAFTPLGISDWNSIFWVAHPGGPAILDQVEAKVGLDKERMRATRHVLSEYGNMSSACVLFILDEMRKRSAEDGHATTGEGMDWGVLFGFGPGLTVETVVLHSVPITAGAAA
His6-tagged morning glory chalcone synthase D (InCHS-D) (Ipomoea nil), sequence (O22045 whole entry): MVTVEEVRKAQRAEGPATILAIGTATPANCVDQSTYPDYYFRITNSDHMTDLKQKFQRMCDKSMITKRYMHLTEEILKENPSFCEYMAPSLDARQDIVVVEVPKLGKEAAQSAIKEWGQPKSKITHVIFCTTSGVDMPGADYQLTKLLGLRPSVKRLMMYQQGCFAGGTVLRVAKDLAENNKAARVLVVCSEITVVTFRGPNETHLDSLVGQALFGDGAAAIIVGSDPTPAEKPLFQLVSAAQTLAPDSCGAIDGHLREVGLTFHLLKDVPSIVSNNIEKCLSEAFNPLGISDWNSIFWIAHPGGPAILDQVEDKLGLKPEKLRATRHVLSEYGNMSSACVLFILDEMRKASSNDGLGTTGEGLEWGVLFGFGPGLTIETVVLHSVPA
His6-tagged soybean chalcone synthase isozyme 7 (GmCHS-7) (Glycine max), sequence (P30081 whole entry): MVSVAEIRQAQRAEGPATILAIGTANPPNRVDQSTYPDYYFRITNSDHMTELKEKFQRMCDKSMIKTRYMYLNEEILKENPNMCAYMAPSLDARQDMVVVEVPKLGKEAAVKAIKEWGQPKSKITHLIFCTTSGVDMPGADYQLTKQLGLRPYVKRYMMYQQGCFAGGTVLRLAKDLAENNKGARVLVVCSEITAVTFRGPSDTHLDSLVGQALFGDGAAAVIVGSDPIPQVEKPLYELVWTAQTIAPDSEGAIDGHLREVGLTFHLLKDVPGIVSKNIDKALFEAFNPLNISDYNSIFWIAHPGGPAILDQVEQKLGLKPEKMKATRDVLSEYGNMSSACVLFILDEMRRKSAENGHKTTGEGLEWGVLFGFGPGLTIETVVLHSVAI
His6-tagged snapdragon chalcone synthase (His6-AmCHS) (Antirrhinum majus), sequence (P06515 whole entry): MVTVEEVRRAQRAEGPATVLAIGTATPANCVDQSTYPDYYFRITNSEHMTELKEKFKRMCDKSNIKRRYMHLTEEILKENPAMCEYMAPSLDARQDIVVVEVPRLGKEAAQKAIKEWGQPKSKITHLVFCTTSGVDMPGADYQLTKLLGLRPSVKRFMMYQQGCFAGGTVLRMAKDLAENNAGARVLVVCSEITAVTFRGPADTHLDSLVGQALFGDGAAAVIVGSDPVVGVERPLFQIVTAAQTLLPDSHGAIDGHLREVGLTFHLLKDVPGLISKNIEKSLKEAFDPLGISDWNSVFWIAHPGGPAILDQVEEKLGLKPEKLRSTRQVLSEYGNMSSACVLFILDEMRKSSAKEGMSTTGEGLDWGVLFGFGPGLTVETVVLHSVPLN
His6-tagged snapdragon CHS (Antirrhinum majus (snapdragon)), sequence (P06515 whole entry): as above
His6-tagged Physcomitrella patens chalcone synthase (PpCHS) (Physcomitrella patens), sequence (Q2VAZ3 entry or part of it): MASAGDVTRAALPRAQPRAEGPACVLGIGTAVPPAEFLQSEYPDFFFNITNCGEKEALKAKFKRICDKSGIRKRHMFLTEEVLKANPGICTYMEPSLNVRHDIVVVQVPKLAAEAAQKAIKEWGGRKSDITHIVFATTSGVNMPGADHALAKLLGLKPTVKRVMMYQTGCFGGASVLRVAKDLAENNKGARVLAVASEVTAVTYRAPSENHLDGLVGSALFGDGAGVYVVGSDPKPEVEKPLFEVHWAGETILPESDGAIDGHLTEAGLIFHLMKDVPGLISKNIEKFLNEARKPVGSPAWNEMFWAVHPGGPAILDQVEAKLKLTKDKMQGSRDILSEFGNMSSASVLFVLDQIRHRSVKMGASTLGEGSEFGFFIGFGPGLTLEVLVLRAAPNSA

Take “PpCHIL (GAL4 two-hybrid fusion) (natural protein)”: the E value (chalconoid excess over CTAL) of the reaction catalysed by 0.1 µM PpCHS in the presence of 1 µM CHIL (−67% without CHIL); purified recombinant proteins in [1] amounted to 90%.

In the case of “glutathione S-transferase-tagged Physcomitrella patens chalcone isomerase-like protein A (PpCHIL-A) (natural protein)”, in test [2], the Kd was found to be 2.69 nM, the koff was 0.000319 s⁻¹ and the kon came out at 118000 M⁻¹ s⁻¹.

Substance “His6-tagged snapdragon CHIL (natural protein)” displayed a stoichiometry N (CHIL monomer per CHS monomer) in test [3] of 1. In test [4], the E value (chalconoid excess over CTAL) of the reaction catalysed by 0.1 µM AmCHS in the presence of 1 µM CHIL (+18% without CHIL) was determined as 80%; the amount of THC and naringenin (chalconoids) formed by 0.1 µM AmCHS with 1.0 µM AmCHIL against without, with a substantial decrease in CTAL formation was 1.7 fold.

For the substance “glutathione S-transferase-tagged soybean chalcone isomerase-like protein (GmCHIL) (natural protein)”, in test [5], the Kd was found to be 19.3 nM, the koff came to 0.00113 s⁻¹ and the kon came out at 58300 M⁻¹ s⁻¹. In test [6], the Kd turned out to be 7.46 nM, the koff was determined as 0.000381 s⁻¹ and the kon came to 51000 M⁻¹ s⁻¹.

For “glutathione S-transferase-tagged rice chalcone isomerase-like protein A (OsCHIL-A) (natural protein)”, in test [7], the Kd turned out to be 64.4 nM, the koff turned out to be 0.000672 s⁻¹ and the kon stood at 10400 M⁻¹ s⁻¹.

In the case of “glutathione S-transferase-tagged Hydrangea macrophylla chalcone isomerase-like protein (HmCHIL) (natural protein)”, in test [8], the Kd was 24.1 nM, the koff was found to be 0.00277 s⁻¹ and the kon was found to be 115000 M⁻¹ s⁻¹.

As for “glutathione S-transferase-tagged Ginkgo biloba chalcone isomerase-like protein (GbCHIL) (natural protein)”, in test [9], the koff came out at 0.000154 s⁻¹ and the kon was found to be 20200 M⁻¹ s⁻¹.

Turning to “glutathione S-transferase-tagged Selaginella moellendorffii chalcone isomerase-like protein (SmCHIL) (natural protein)”, in [10], the Kd was 56.6 nM, the koff turned out to be 0.000674 s⁻¹ and the kon was determined as 11900 M⁻¹ s⁻¹.

For “glutathione S-transferase-tagged snapdragon chalcone isomerase-like protein (AmCHIL) (natural protein)”, in test [11], the Kd stood at 62.6 nM, the koff was 0.00183 s⁻¹ and the kon worked out at 29300 M⁻¹ s⁻¹.

As for “glutathione S-transferase-tagged CHIL of ginkgo (natural protein)”, the Kd in test [12] worked out at 126 nM.

“glutathione S-transferase-tagged morning glory chalcone isomerase-like protein (InCHIL) (natural protein)”: in [13], the Kd stood at 1.05 nM, the koff was 0.000206 s⁻¹ and the kon stood at 196000 M⁻¹ s⁻¹.
